Data as given in patent US20230331840A1 (FAPON BIOTHERAPY, published 2023).
One block for each binder: values may come before it.

Target: T1, Human CD22 extracellular segment conjugated His label (human, UniProt P20273 20-687)
T1 construct: extracellular domain; Bought recombinant protein; also called h CD22-His; hCD22-His; not shown: His label
Assay: ELISA, h CD22-His coated at 2 µg/ml, antibody in 3-fold dilutions
Description: M971 was a 7 epitope humanized CD22 antibody. The specific sequence and information can be found publicly. The antibody was synthesized by Shenzhen FeipengBiological therapy Co., LTD.

binding result: binds
B1: CD22 antibody FC2-201 (antibody, IgG2b, V domains shown)
VH: KVQLQQSGAGLVKPGASVKLSCKASGYTFTDSILHWLMQRSGQGLEWIGWFYPGSGSIKYNEKFKDKATLTADKSSSTVYMELSRLTSEDSAFYFCARHEDGYDGFAYWGQGTLVTVSA
VL: ENVLTQSPAIMSASLGEKVTMSCRASSSVNYIFWYQQKSDASPKLWIYYTSNLAPGVPARFSGSGSGNSYSLTISSMEGEDAATYYCQQFTSSPFTFGSGTKLEIKR
notes: Mouse hybridoma monoclonal antibody

binding result: binds
B2: CD22 antibody FC2-117 (antibody, IgG1, V domains shown)
VH: DVQLQESGPGLVKPSQSLSLTCSVTGYSITSGYYWNWIRQFPGNKLEWMGYISYDGSNNYNPSLKNRISITRDTSKNQFFLKLNSVTTEDTATYYCTKGGYGYYFDYWGQGTTLTVSS
VL: DIQMTQSPASLSASVGETVTITCRASGNIHNYLAWYQQKQGKSPQLLVYNAKTLADGVPSRFSGSGSGTQYSLKINSLQPEDFGSYYCQHFWSTPPTFGGGTKLEIKR
notes: as for B1
